The data set deals with the molecule itself. The experiment in a line: cryo-EM structure; purified AtALMT9-sfGFP-HA-H10 in LMNG; three datasets (LMNG + CHS; LMNG + CHS + 10 mM malate; LMNG + 10 mM malate); 20 mM HEPES pH 7.6, 150 mM NaCl, 1 mM TCEP; nine lipid-bound classes.

B1: AtALMT9-superfolder GFP (sfGFP)-hemagglutinin (HA) tag-decahistidine (H10) tag (natural protein, Arabidopsis thaliana, UniProt Q9LS46 1-598, looked up)
chain: MAAKQGSFRHGILEKRERLLSNNGFSDFRFTDIESNDLLENENCGRRTRLCCCCSCGNLSEKISGVYDDAKDVARKAWEMGVSDPRKIVFSAKIGLALTIVALLIFYQEPNPDLSRYSVWAILTVVVVFEFTIGATLSKGFNRALGTLSAGGLALGMAELSTLFGDWEEIFCTLSIFCIGFLATFMKLYPSMKAYEYGFRVFLLTYCYILISGFRTGQFIEVAISRFLLIALGAGVSLGVNMFIYPIWAGEDLHNLVVKNFMNVATSLEGCVNGYLRCLEYERIPSKILTYQASEDPVYKGYRSAVESTSQEESLMSFAIWEPPHGPYKSFNYPWKNYVKLSGALKHCAFTVMALHGCILSEIQAPEERRQVFRQELQRVGVEGAKLLRELGEKVKKMEKLGPVDLLFEVHLAAEELQHKIDKKSYLLVNSECWEIGNRATKESEPQELLSLEDSDPPENHAPPIYAFKSLSEAVLEIPPSWGEKNHREALNHRPTFSKQVSWPARLVLPPHLETTNGASPLVETTKTYESASALSLATFASLLIEFVARLQNVVDAFKELSQKANFKEPEIVTTGTDVEFSGERVGLGQKIRRCFGM
notes: cloned into modified pACEBac2-sfGFP-HA-H10; No tag cleavage is described; The final models lack the flexible N-terminus, the C-terminus and two long loops (between H1 and H2, and between H5 and H6); also called ALMT9 from Arabidopsis thaliana; source: Sf9 cells (baculovirus), purified (TALON resin, Superdex 200 increase) in LMNG with or without CHS
As for B1, the stoichiometry N (commonly a count of units in the complex or per binding partner) was 2.
